The nature of the data set: soluble on expression in E. coli; label from the status in PepcDB or PDB records.
As to “PQEKLIFTLDSADRAYRVLVEAMNEGTATLASDGTILYCNRQFAELTKMSSGAVVGTSIYGFIAPEDAITFKALLKQKNSVGELKFRAQGGTSVPVYLSISSLQSEGSPSAWCLVVTDL”, the “soluble on expression in E. coli” value is “not soluble”.
For the sequence “MKHGILVAYKPKGPTSHDVVDEVRKKLKTRKVGHGGTLDPFACGVLIIGVNQGTRILEFYKDLKKVFWVKMRLGLITETFDITGEVVEERECNVTEEEIREAIFSFVGEYDQVPPAYSAKKYKGERLYKLAREGKIINLPPKRVKIFKIWDVNIEGRDVSFRVEVSPGTYIRSLCMDIGYKLGCGATAVELVRESVGPHTIEESLNVFEAAPEEIENRIIPLEKCLEWLPRVVVHQESTKMILNGSQIHLEMLKEWDGFKKGEVVRVFNEEGRLLALAEAERNSSFLETLRKHERQERVLTLRKVFQTR”, the “soluble on expression in E. coli” value is “soluble”.
With “MPIPKSAKSDYTKEQKDLVGNICQCKDFYKILNVDKKASPDEIRIAFRKRIREVHPDKCKHPSATEASKVVNNAFSLLMDPAKRRQYDLQNAETSNENLYKRCNRNKNQRKQEYSNTQRQNHKKSEPSNGKRNEQNSSFKQDHNSKNHQSNHQKTKNKKSNPYSNQNNFNNTRKDYREEKSGFSWNTGSA”, the “soluble on expression in E. coli” value is “not soluble”.
Then “RAGHIEVAEVEGMSFPVKLDTGADVSSINAKDIKLFQKDGKDMVSFTYENDLGMQKAFTREVVDVMKITAKKGEKANVRPVVEMHVKLGELEKKIRVNLQDRGRFHYSMILGKNFLKHGALVASETNYIVTKKPDYEK”, with “not soluble”.
For “GPGSMAPNQFVELVDTVEKYATRGSNECGCRIDTREESIPSNTLVGYPFANAEGVGVHLSYRKGDITLSADVSSNPKATWRDVLPTFSWTRSLRGQQHEVLLRLAMTPLFAYSFSHPQFTCSSEVNFMDGFRSKFTTSTQLSMRNQLGACVEYDPSRSGVIDYTVAFLRAGCSAVLGGDFVVQYNATRGLGVHTRIPVKPFMGAVALVERGRVIIGTEARSPCGAQMMMNLDLVNSRVMLAVVRNISTVWKFTFNYSAPLPGTSSAARRFGLVFTSQDAP” the value was “not soluble”.
For “MGSDKIHHHHHHMKLSDFIKTEDFKKEKHVPVIEAPEKVKKDEKVQIVVTVGKEIPHPNTTEHHIRWIKVFFQPDGDPYVYEVGRYEFNAHGESVQGPNIGAVYTEPTVTTVVKLNRSGTIIALSYCNIHGLWESSQKITVEE” the value was “soluble”.
Consider “QVEFYFSEFNFPYDRFLRTTAEKNDGWVPISTIATFNRMKKYRPVDKVIEALRSSEILEVSADGENVKRRVPLDLTAARNARIEQNQRTLAVMNFPHEDVEASQIPELQENLEAFFKKLGEINQVRLRRDHRNKKFNGTVLVEFKTIPECEAFLKSYSNDDESNEILSYEGKKLSVLT”, for which the “soluble on expression in E. coli” value was “not soluble”.
Take “MLSNQQIRNFSRGVGHLRRRAAKNNVIKVRPEELRPFFNQYSVLPNGIQNDADAKLFSKELQPGERKLLFDALRKITADQYNDHKKVVEVTIDHEDLVKVWYINFIPMFVYGCLDEAFLIIGGESINK”: the “soluble on expression in E. coli” value is given as “not soluble”.
In the case of “MNKVVLLCRPGFEKECAAEITDKAGQREIFGFARVKENAGYVIYECYQPDDGDKLIRELPFSSLIFARQWFVVGELLQHLPPEDRITPIVGMLQGVVEKGGELRVEVADTNESKELLKFCRKFTVPLRAALRDAGVLANYETPKRPVVHVFFIAPGCCYTGYSYSNNNSPFYMGIPRLKFPAEAPSRSTLKLEEAFHVFIPADEWDERLANGMWAVDLGACPGGWTYQLVKRNMWVYSVDNGPMAQSLMDTGQVTWLREDGFKFRPTRSNISWMVCDMVEKPAKVAALMAQWLVNGWCRETIFNLKLPMKKRYEEVSHNLAYIQAQLDEHGINAQIQARQLYHDREEVTVHVRRIWAAVGGRRDER”, the “soluble on expression in E. coli” value is recorded as “not soluble”.
Turning to “MSVAETEIPIPAATPSLTDACVHCGFCLSDCPSYRVLGRETDSPRGRVYLMDSLQQGRIELSDTVVEHFDTCLGCLACTSACPSGVQYDQLIEEMRQRIAQEHRRPWPEAIWRKLLEHHHHHH”, the “soluble on expression in E. coli” value was “not soluble”.
Then “MYQASCLFYFMTPVFFLLSTYPRNLLIGDSSTAFTKELIAKMNEVTNSAESTSSKRPGRPRKDGHDEKIIDATLRLIDSNRPVTVNAVVKESGVSRAAVYRRWPGLVDLVAEALDAGRAPVEIDTSGDIKETLIDGLFTNQAKTTGVSYPRQRFRKRLELVMSDQELQLAAAALEHHHHHH”, with “not soluble”.
